The values that follow come from paper PMC7367873, “Dissecting the sequence determinants for dephosphorylation by the catalytic subunits of phosphatases PP1 and PP2A” (Nature Communications, 2020).

The labels stand for the following.
B1: UBAP2L (protein, UniProt Q14157 1-1087, looked up)
Ubiquitin-associated protein …: MMTSVGTNRARGNWEQPQNQNQTQHKQRPQATAEQIRLAQMISDHNDADFEEKVKQLIDITGKNQDECVIALHDCNGDVNRAINVLLEGNPDTHSWEMVGKKKGVSGQKDGGQTESNEEGKENRDRDRDYSRRRGGPPRRGRGASRGREFRGQENGLDGTKSGGPSGRGTERGRRGRGRGRGGSGRRGGRFSAQGMGTFNPADYAEPANTDDNYGNSSGNTWNNTGHFEPDDGTSAWRTATEEWGTEDWNEDLSETKIFTASNVSSVPLPAENVTITAGQRIDLAVLLGKTPSTMENDSSNLDPSQAPSLAQPLVFSNSKQTAISQPASGNTFSHHSMVSMLGKGFGDVGEAKGGSTTGSQFLEQFKTAQALAQLAAQHSQSGSTTTSSWDMGSTTQSPSLVQYDLKNPSDSAVHSPFTKRQAFTPSSTMMEVFLQEKSPAVATSTAAPPPPSSPLPSKSTSAPQMSPGSSDNQSSSPQPAQQKLKQQKKKASLTSKIPALAVEMPGSADISGLNLQFGALQFGSEPVLSDYESTPTTSASSSQAPSSLYTSTASESSSTISSNQSQESGYQSGPIQSTTYTSQNNAQGPLYEQRSTQTRRYPSSISSSPQKDLTQAKNGFSSVQATQLQTTQSVEGATGSAVKSDSPSTSSIPPLNETVSAASLLTTTNQHSSSLGGLSHSEEIPNTTTTQHSSTLSTQQNTLSSSTSSGRTSTSTLLHTSVESEANLHSSSSTFSTTSSTVSAPPPVVSVSSSLNSGSSLGLSLGSNSTVTASTRSSVATTSGKAPPNLPPGVPPLLPNPYIMAPGLLHAYPPQVYGYDDLQMLQTRFPLDYYSIPFPTPTTPLTGRDGSLASNPYSGDLTKFGRGDASSPAPATTLAQPQQNQTQTHHTTQQTFLNPALPPGYSYTSLPYYTGVPGLPSTFQYGPAVFPVAPTSSKQHGVNVSVNASATPFQQPSGYGSHGYNTGVSVTSSNTGVPDISGSVYSKTQQSFEKQGFHSGTPAASFNLPSALGSGGPINPATAAAYPPAPFMHILTPHQQPHSQILHHHLQQDGQTGSGQRSQTSSIPQKPQTNKSAYNSYSWGAN
B2: HNRNPF (protein, UniProt P52597 1-415, looked up)
Heterogeneous nuclear …: MMLGPEGGEGFVVKLRGLPWSCSVEDVQNFLSDCTIHDGAAGVHFIYTREGRQSGEAFVELGSEDDVKMALKKDRESMGHRYIEVFKSHRTEMDWVLKHSGPNSADSANDGFVRLRGLPFGCTKEEIVQFFSGLEIVPNGITLPVDPEGKITGEAFVQFASQELAEKALGKHKERIGHRYIEVFKSSQEEVRSYSDPPLKFMSVQRPGPYDRPGTARRYIGIVKQAGLERMRPGAYSTGYGGYEEYSGLSDGYGFTTDLFGRDLSYCLSGMYDHRYGDSEFTVQSTTGHCVHMRGLPYKATENDIYNFFSPLNPVRVHIEIGPDGRVTGEADVEFATHEEAVAAMSKDRANMQHRYIELFLNSTTGASNGAYSSQVMQGMGVSAAQATYSGLESQSVSGCYGAGYSGQNSMGGYD
B3: ASPH (protein, UniProt Q12797 1-758, looked up)
Aspartyl/asparaginyl …: MAQRKNAKSSGNSSSSGSGSGSTSAGSSSPGARRETKHGGHKNGRKGGLSGTSFFTWFMVIALLGVWTSVAVVWFDLVDYEEVLGKLGIYDADGDGDFDVDDAKVLLGLKERSTSEPAVPPEEAEPHTEPEEQVPVEAEPQNIEDEAKEQIQSLLHEMVHAEHVEGEDLQQEDGPTGEPQQEDDEFLMATDVDDRFETLEPEVSHEETEHSYHVEETVSQDCNQDMEEMMSEQENPDSSEPVVEDERLHHDTDDVTYQVYEEQAVYEPLENEGIEITEVTAPPEDNPVEDSQVIVEEVSIFPVEEQQEVPPETNRKTDDPEQKAKVKKKKPKLLNKFDKTIKAELDAAEKLRKRGKIEEAVNAFKELVRKYPQSPRARYGKAQCEDDLAEKRRSNEVLRGAIETYQEVASLPDVPADLLKLSLKRRSDRQQFLGHMRGSLLTLQRLVQLFPNDTSLKNDLGVGYLLIGDNDNAKKVYEEVLSVTPNDGFAKVHYGFILKAQNKIAESIPYLKEGIESGDPGTDDGRFYFHLGDAMQRVGNKEAYKWYELGHKRGHFASVWQRSLYNVNGLKAQPWWTPKETGYTELVKSLERNWKLIRDEGLAVMDKAKGLFLPEDENLREKGDWSQFTLWQQGRRNENACKGAPKTCTLLEKFPETTGCRRGQIKYSIMHPGTHVWPHTGPTNCRLRMHLGLVIPKEGCKIRCANETKTWEEGKVLIFDDSFEHEVWQDASSFRLIFIVDVWHPELTPQQRRSLPAI
B4: C4BPA (protein, UniProt P04003 49-597, looked up)
C4b-binding protein alpha …: NCGPPPTLSFAAPMDITLTETRFKTGTTLKYTCLPGYVRSHSTQTLTCNSDGEWVYNTFCIYKRCRHPGELRNGQVEIKTDLSFGSQIEFSCSEGFFLIGSTTSRCEVQDRGVGWSHPLPQCEIVKCKPPPDIRNGRHSGEENFYAYGFSVTYSCDPRFSLLGHASISCTVENETIGVWRPSPPTCEKITCRKPDVSHGEMVSGFGPIYNYKDTIVFKCQKGFVLRGSSVIHCDADSKWNPSPPACEPNSCINLPDIPHASWETYPRPTKEDVYVVGTVLRYRCHPGYKPTTDEPTTVICQKNLRWTPYQGCEALCCPEPKLNNGEITQHRKSRPANHCVYFYGDEISFSCHETSRFSAICQGDGTWSPRTPSCGDICNFPPKIAHGHYKQSSSYSFFKEEIIYECDKGYILVGQAKLSCSYSHWSAPAPQCKALCRKPELVNGRLSVDKDQYVEPENVTIQCDSGYGVVGPQSITCSGNRTWYPEVPKCEWETPEGCEQVLTGKRLMQCLPNPEDVKMALEVYKLSLEIEQLELQRDSARQSTLDKEL
B5: ATXN2L (protein, UniProt Q8WWM7 1-1075, looked up)
Ataxin-2-like protein: MLKPQPLQQPSQPQQPPPTQQAVARRPPGGTSPPNGGLPGPLATSAAPPGPPAAASPCLGPVAAAGSGLRRGAEGILAPQPPPPQQHQERPGAAAIGSARGQSTGKGPPQSPVFEGVYNNSRMLHFLTAVVGSTCDVKVKNGTTYEGIFKTLSSKFELAVDAVHRKASEPAGGPRREDIVDTMVFKPSDVMLVHFRNVDFNYATKDKFTDSAIAMNSKVNGEHKEKVLQRWEGGDSNSDDYDLESDMSNGWDPNEMFKFNEENYGVKTTYDSSLSSYTVPLEKDNSEEFRQRELRAAQLAREIESSPQYRLRIAMENDDGRTEEEKHSAVQRQGSGRESPSLASREGKYIPLPQRVREGPRGGVRCSSSRGGRPGLSSLPPRGPHHLDNSSPGPGSEARGINGGPSRMSPKAQRPLRGAKTLSSPSNRPSGETSVPPPPAVGRMYPPRSPKSAAPAPISASCPEPPIGSAVPTSSASIPVTSSVSDPGVGSISPASPKISLAPTDVKELSTKEPGRTLEPQELARIAGKVPGLQNEQKRFQLEELRKFGAQFKLQPSSSPENSLDPFPPRILKEEPKGKEKEVDGLLTSEPMGSPVSSKTESVSDKEDKPPLAPSGGTEGPEQPPPPCPSQTGSPPVGLIKGEDKDEGPVAEQVKKSTLNPNAKEFNPTKPLLSVNKSTSTPTSPGPRTHSTPSIPVLTAGQSGLYSPQYISYIPQIHMGPAVQAPQMYPYPVSNSVPGQQGKYRGAKGSLPPQRSDQHQPASAPPMMQAAAAAGPPLVAATPYSSYIPYNPQQFPGQPAMMQPMAHYPSQPVFAPMLQSNPRMLTSGSHPQAIVSSSTPQYPSAEQPTPQALYATVHQSYPHHATQLHAHQPQPATTPTGSQPQSQHAAPSPVQHQAGQAPHLGSGQPQQNLYHPGALTGTPPSLPPGPSAQSPQSSFPQPAAVYAIHHQQLPHGFTNMAHVTQAHVQTGITAAPPPHPGAPHPPQVMLLHPPQSHGGPPQGAVPQSGVPALSASTPSPYPYIGHPQGEQPGQAPGFPGGADDRIREFSLAGGIWHGRAEGLQVGQDARVLGGE
B6: MISP (protein, UniProt Q8IVT2 1-679, looked up)
Mitotic interactor and …: MDRVTRYPILGIPQAHRGTGLVLDGDTSYTYHLVCMGPEASGWGQDEPQTWPTDHRAQQGVQRQGVSYSVHAYTGQPSPRGLHSENREDEGWQVYRLGARDAHQGRPTWALRPEDGEDKEMKTYRLDAGDADPRRLCDLERERWAVIQGQAVRKSSTVATLQGTPDHGDPRTPGPPRSTPLEENVVDREQIDFLAARQQFLSLEQANKGAPHSSPARGTPAGTTPGASQAPKAFNKPHLANGHVVPIKPQVKGVVREENKVRAVPTWASVQVVDDPGSLASVESPGTPKETPIEREIRLAQEREADLREQRGLRQATDHQELVEIPTRPLLTKLSLITAPRRERGRPSLYVQRDIVQETQREEDHRREGLHVGRASTPDWVSEGPQPGLRRALSSDSILSPAPDARAADPAPEVRKVNRIPPDAYQPYLSPGTPQLEFSAFGAFGKPSSLSTAEAKAATSPKATMSPRHLSESSGKPLSTKQEASKPPRGCPQANRGVVRWEYFRLRPLRFRAPDEPQQAQVPHVWGWEVAGAPALRLQKSQSSDLLERERESVLRREQEVAEERRNALFPEVFSPTPDENSDQNSRSSSQASGITGSYSVSESPFFSPIHLHSNVAWTVEDPVDSAPPGQRKKEQWYAGINPSDGINSEVLEAIRVTRHKNAMAERWESRIYASEEDD

The first assay relates to GFP-14-3-3β. Put plainly: GFP-14-3-3β co-IP with LC-MS/MS, untreated GFP-14-3-3β versus GFP control (14-3-3 interactome). The assay is classed as binding, human. The settings on record: untreated vs GFP; LFQ intensities; 3 replicates each.
As to B1, the “Difference (log2), untreated vs GFP” value is -0.6949 log2.

The assay is the same for the next values; noted with them: untreated vs GFP; label-free quantification.
Regarding B2, the “Difference (log2), untreated vs GFP” value is on record as -0.6522 log2.

Take B3: the “Difference (log2), untreated vs GFP” value is reported as 0.9544 log2.

On to B4, for which the “Difference (log2), untreated vs GFP” value is reported as -1.682 log2.

Consider B5, for which the “Difference (log2), untreated vs GFP” value is reported as 0.1548 log2.

As to B6, the “Difference (log2), untreated vs GFP” value was -0.2245 log2.

The next assay concerns GFP-14-3-3β and its binding proteins. Put plainly: GFP-14-3-3β co-IP with LC-MS/MS label-free quantification, untreated versus PP1c-treated. On the set-up: species or system human. Particulars: PP1 vs untreated; LFQ intensities; 3 replicates each.
Regarding B1, the “Difference (log2), PP1 vs untreated” value is listed as 0.7375 log2.

The assay is the same for the next values; noted with them: PP1 vs untreated; label-free quantification.
For the molecule B2, the “Difference (log2), PP1 vs untreated” value is given as 0.766 log2.

In the case of B3, the “Difference (log2), PP1 vs untreated” value was found to be 0.7413 log2.

B4: the “Difference (log2), PP1 vs untreated” value is 0.7487 log2.

In the case of B5, the “Difference (log2), PP1 vs untreated” value is on record as 0.7492 log2.

B6: the “Difference (log2), PP1 vs untreated” value is reported as 0.7397 log2.
